Here are results for 1 substance from PMC11302929.

In this assay the target is recombinant soluble NDV HN ectodomain with GCN4IL dimerization domain (HN-GCN4IL) (not stated | Newcastle disease virus). The assay can be described thus: SEC; Superdex 200 Increase 10/300 GL column, freshly purified NDV HN proteins.

Values joined by “and” are separate entries in the source; they are usually repeats but may differ in a detail not shown here. Identical values can stand only once.

For “recombinant soluble NDV HN ectodomain with GCN4IL dimerization domain (HN-GCN4IL)”, the stoichiometry N – broadly, a count of units in the complex or per binding partner – is 2 and 4.
